From paper PMC8671107 (Frontiers in Molecular Biosciences, 2021)
No end group written: not given here.

Columns and labels:
[1] = target: muscle-type nicotinic acetylcholine receptor from Torpedo californica electric organ (Torpedo californica (endogenous in electric organ)); test: radioligand binding
[2] = target: neuronal human α7 nicotinic acetylcholine receptor expressed in GH4C1 cells (human) (UniProt P36544); test: radioligand binding
[3] = target: T1, acetylcholine binding protein from Lymnaea stagnalis (Lymnaea stagnalis, UniProt P58154 20-229); test: radioligand binding; conditions: both partners purified
T1 construct: also called AChBP; L. stagnalis AChBP

[4] = target: T1, acetylcholine binding protein from …; test: radioligand binding; conditions: both partners purified; remark: listed apart in the source
[5] = target: T1, acetylcholine binding protein from …; test: MST; conditions: both partners purified
[6] = target: T1, acetylcholine binding protein from …; test: other fluorescence titration; conditions: both partners purified

T1 sequence (P58154 20-229): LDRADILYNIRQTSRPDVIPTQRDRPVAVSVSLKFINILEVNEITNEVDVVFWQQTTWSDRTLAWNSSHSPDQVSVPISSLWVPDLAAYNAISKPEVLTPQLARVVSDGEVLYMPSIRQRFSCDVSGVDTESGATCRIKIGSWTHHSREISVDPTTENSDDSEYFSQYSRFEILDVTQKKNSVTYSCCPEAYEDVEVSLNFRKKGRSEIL
Chain of muscle-type nicotinic acetylcholine receptor from Torpedo californica electric organ (Torpedo californica (endogenous in electric organ)) (P02710 25-461 limits assumed, chain 1 of 4): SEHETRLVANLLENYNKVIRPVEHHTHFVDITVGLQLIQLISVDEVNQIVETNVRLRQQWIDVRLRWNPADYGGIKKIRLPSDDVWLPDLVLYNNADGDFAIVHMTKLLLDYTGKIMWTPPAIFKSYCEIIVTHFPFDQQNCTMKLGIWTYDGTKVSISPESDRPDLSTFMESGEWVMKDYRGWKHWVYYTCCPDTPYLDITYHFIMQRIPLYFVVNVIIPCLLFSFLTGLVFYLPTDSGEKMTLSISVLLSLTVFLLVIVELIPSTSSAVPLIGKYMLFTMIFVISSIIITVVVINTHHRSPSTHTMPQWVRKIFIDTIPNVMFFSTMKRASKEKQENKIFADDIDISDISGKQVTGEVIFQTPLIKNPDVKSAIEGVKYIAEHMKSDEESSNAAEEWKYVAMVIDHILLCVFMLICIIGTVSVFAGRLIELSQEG
Chain of muscle-type nicotinic acetylcholine receptor from Torpedo californica electric organ (Torpedo californica (endogenous in electric organ)) (P02712 25-493 limits assumed, chain 2 of 4, further chain): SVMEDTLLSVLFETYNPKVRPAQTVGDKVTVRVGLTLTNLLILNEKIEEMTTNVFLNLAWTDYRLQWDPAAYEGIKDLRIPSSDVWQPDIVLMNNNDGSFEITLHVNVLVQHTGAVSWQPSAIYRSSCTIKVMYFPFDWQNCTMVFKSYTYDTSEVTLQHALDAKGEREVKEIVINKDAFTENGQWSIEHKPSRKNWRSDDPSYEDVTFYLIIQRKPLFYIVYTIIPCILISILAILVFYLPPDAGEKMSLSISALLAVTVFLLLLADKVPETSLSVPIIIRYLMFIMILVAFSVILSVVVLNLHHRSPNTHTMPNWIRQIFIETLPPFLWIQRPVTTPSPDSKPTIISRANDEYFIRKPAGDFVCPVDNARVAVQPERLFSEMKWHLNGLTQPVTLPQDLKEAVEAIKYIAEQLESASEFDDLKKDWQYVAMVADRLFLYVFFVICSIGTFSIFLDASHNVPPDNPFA
Chain of muscle-type nicotinic acetylcholine receptor from Torpedo californica electric organ (Torpedo californica (endogenous in electric organ)) (P02714 18-506 limits assumed, chain 3 of 4, further chain): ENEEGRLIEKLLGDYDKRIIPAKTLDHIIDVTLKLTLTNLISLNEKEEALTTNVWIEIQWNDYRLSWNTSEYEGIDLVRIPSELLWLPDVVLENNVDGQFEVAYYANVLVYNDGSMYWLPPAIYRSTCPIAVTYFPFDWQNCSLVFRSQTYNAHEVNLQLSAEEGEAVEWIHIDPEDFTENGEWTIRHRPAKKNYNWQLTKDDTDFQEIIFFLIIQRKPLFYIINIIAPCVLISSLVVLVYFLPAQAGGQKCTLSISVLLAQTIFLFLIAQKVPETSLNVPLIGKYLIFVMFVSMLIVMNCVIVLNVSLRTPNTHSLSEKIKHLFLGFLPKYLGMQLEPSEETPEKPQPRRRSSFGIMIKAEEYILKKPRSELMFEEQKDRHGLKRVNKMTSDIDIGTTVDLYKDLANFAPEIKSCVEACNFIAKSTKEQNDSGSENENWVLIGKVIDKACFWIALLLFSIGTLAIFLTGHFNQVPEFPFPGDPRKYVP
Chain of muscle-type nicotinic acetylcholine receptor from Torpedo californica electric organ (Torpedo californica (endogenous in electric organ)) (P02718 22-522 limits assumed, chain 4 of 4, further chain): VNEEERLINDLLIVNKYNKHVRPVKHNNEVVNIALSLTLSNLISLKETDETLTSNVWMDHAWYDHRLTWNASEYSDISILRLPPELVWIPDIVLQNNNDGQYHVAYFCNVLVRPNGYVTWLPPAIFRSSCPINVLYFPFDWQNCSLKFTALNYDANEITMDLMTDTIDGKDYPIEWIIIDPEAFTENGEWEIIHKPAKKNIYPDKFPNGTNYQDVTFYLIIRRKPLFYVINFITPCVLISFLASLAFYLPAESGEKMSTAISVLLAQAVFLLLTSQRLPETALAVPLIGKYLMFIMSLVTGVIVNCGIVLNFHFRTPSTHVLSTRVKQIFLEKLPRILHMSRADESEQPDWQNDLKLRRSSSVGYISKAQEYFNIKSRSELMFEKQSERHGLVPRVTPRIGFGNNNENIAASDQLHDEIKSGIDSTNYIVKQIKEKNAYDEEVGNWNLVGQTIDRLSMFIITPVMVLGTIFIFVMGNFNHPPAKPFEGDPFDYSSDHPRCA
Chain of neuronal human α7 nicotinic acetylcholine receptor expressed in GH4C1 cells (human) (P36544 23-502): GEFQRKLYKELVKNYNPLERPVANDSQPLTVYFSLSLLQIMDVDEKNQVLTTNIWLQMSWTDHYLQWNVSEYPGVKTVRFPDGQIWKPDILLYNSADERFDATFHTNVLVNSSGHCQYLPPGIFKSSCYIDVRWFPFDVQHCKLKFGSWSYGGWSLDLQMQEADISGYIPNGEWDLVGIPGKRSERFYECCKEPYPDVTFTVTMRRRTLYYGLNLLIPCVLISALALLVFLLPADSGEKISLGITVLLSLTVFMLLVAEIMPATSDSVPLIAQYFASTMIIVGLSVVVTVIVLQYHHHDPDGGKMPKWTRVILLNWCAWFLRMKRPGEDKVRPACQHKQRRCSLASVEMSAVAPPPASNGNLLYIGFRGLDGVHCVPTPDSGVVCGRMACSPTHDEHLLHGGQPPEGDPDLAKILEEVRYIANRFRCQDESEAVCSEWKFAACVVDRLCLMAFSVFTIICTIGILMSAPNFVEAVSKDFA

Work on “HOBDI-BF2–α-CbTx (from UniProt P01391 1-71) (natural protein)” yielded an IC50 [1] of 3.88 nM and an IC50 [2] of 27 nM.

For “HOBDI-BF2–Aze (fraction 4, label at Lys6) (peptide)”, the IC50 [1] was 172 nM.

“α-cobratoxin (from UniProt P01391 1-71) (natural protein)” was tested, and the IC50 [1] was 0.57 nM and the IC50 [2] was 5.4 nM.

B1: ^125I-α-bungarotoxin (natural protein)
chain: IVCHTTATSPISAVTCPPGENLCYRKMWCDAFCSSRGKVVELGCAATCPSKKPYEEVTCCSTDKCNPHPKQRPG
B1: binds [3].

In the case of DNWWPKPPHQGPRPPRPRPKP-NH2 (also: one p-HOBDI-BF2 label, position not given here) [Fraction 5 of p-HOBDI-BF2-modified azemiopsin (mono-modified product)], the IC50 [1] is reported as 128 nM.

For DNWWPKPPHQGPRPPRPRPKP-NH2 (also: one p-HOBDI-BF2 label, position not given here), the IC50 [1] was 210 nM.

DNWWPKPPHQGPRPPRPRPKP-NH2 [azemiopsin] gave an IC50 [1] of 7.3 nM.

B2: α-cobratoxin (natural protein)
chain: IRCFITPDITSKDCPNGHVCYTKTWCDAFCSIRGKRVDLGCAATCPTVKTGVDIQCCSTDNCNPFPTRKRP
B2 was tested, and the IC50 [4] was 28 nM.

B3: HOBDI-BF2–α-CbTx (natural protein)
chain: B2 chain
In the case of B3, the Kd [5] is reported as 194 ± 89 nM, the IC50 [4] is reported as 67 nM and the Kd [6] is reported as roughly 200 nM.
